Assay results from the Human Domainome abundance scans (Beltran et al. 2025).
± gives the uncertainty stated by the source.

B1: Chromodomain-helicase-DNA-binding protein 4, residues 365 to 417; numbered along this chain, Q14839 (parent)
chain: YETDHQDYCEVCQQGGEIILCDTCPRAYHMVCLDPDMEKAPEGKWSCPHCEKE

Variants of: B1
Assay: abundance fitness (aPCA) (normalised: wild type 0, dead -1); higher = more abundant; growth selection in yeast, the domain comes from the species named
Details: Homo sapiens

Variant | abundance fitness
A27G | -0.162 ± 0.099
A27H | -0.276 ± 0.18
A27I | -0.421 ± 0.14
A27K | -0.238 ± 0.18
A27L | -0.15 ± 0.094
A27N | -0.165 ± 0.16
A27P | -0.262 ± 0.17
A27Q | -0.424 ± 0.16
A27S | -0.088 ± 0.13
A27T | -0.094 ± 0.12
A27V | -0.077 ± 0.1
A27W | -0.257 ± 0.13
A27Y | 0.086 ± 0.15
Y28C | -0.582 ± 0.16
Y28D | -0.526 ± 0.19
Y28E | -0.649 ± 0.12
Y28F | 0.012 ± 0.16
Y28H | 0.023 ± 0.22
Y28I | -0.295 ± 0.14
Y28K | -0.267 ± 0.16
Y28L | -0.073 ± 0.098
Y28M | 0.048 ± 0.12
Y28N | -0.403 ± 0.18
Y28P | -0.704 ± 0.14

Variant | abundance fitness
Y28Q | -0.395 ± 0.14
Y28R | -0.254 ± 0.094
Y28S | -0.271 ± 0.098
Y28T | -0.284 ± 0.14
Y28V | -0.05 ± 0.096
Y28W | 0.086 ± 0.12
H29A | -0.967 ± 0.13
H29C | 0.028 ± 0.16
H29D | -0.306 ± 0.19
H29E | -0.951 ± 0.15
H29F | -1.05 ± 0.29
H29G | -0.698 ± 0.093
H29I | -1.17 ± 0.24
H29K | -0.943 ± 0.19
H29L | -1.04 ± 0.14
H29M | -0.686 ± 0.16
H29N | -0.491 ± 0.26
H29P | -1.1 ± 0.21
H29Q | -0.746 ± 0.14
H29S | -0.477 ± 0.11
H29T | -0.79 ± 0.15
H29V | -1.15 ± 0.11
H29W | -0.999 ± 0.12
H29Y | -0.841 ± 0.16

Variant | abundance fitness
M30A | -0.064 ± 0.1
M30D | -0.272 ± 0.12
M30E | 0.075 ± 0.12
M30F | -0.19 ± 0.14
M30G | -0.126 ± 0.086
M30H | -0.433 ± 0.2
M30I | -0.02 ± 0.19
M30K | 0.115 ± 0.18
M30L | -0.149 ± 0.075
M30Q | -0.287 ± 0.17
M30R | -0.266 ± 0.099
M30S | -0.228 ± 0.1
M30T | 0.077 ± 0.16
M30V | -0.137 ± 0.099
M30W | -0.119 ± 0.12
V31A | 0.121 ± 0.11
V31C | 0.138 ± 0.18
V31D | -0.005 ± 0.14
V31E | -0.089 ± 0.13
V31F | -0.031 ± 0.16
V31G | -0.017 ± 0.091
V31H | 0.104 ± 0.18
V31I | -0.234 ± 0.15
V31K | 0.027 ± 0.17

Variant | abundance fitness
V31L | 0.258 ± 0.098
V31M | -0.417 ± 0.16
V31N | 0.113 ± 0.21
V31P | 0 ± 0.14
V31Q | -0.1 ± 0.14
V31R | -0.032 ± 0.1
V31S | 0.044 ± 0.11
V31T | -0.431 ± 0.17
V31W | -0.236 ± 0.14
V31Y | 0.112 ± 0.16
C32A | -0.737 ± 0.14
C32D | -0.486 ± 0.21
C32E | -0.504 ± 0.17
C32F | -1.02 ± 0.25
C32G | -0.967 ± 0.13
C32H | -0.072 ± 0.21
C32I | -0.916 ± 0.24
C32K | -0.817 ± 0.22
C32L | -0.776 ± 0.12
C32M | -0.687 ± 0.15
C32N | -1.04 ± 0.39
C32P | -0.794 ± 0.19
C32Q | -1.08 ± 0.23
C32S | -0.952 ± 0.14

Variant | abundance fitness
C32T | -0.94 ± 0.17
C32V | -0.63 ± 0.12
C32W | -0.936 ± 0.13
C32Y | -1 ± 0.21
L33A | 0.123 ± 0.12
L33C | 0.026 ± 0.14
L33D | -1.04 ± 0.24
L33E | -0.496 ± 0.12
L33F | 0.022 ± 0.18
L33G | -0.195 ± 0.095
L33K | -0.103 ± 0.14
L33M | -0.084 ± 0.16
L33N | -0.547 ± 0.27
L33P | -0.404 ± 0.17
L33Q | -0.114 ± 0.19
L33S | 0.141 ± 0.1
L33T | 0.162 ± 0.12
L33W | 0.024 ± 0.11
L33Y | -0.025 ± 0.16
D34A | -0.07 ± 0.12
D34C | 0.018 ± 0.16
D34F | -0.282 ± 0.14
D34G | 0.037 ± 0.094
D34H | -0.069 ± 0.18

Variant | abundance fitness
D34I | -0.463 ± 0.2
D34K | -0.314 ± 0.12
D34L | -0.025 ± 0.097
D34N | -0.091 ± 0.17
D34P | -0.149 ± 0.18
D34Q | -0.257 ± 0.2
D34R | -0.145 ± 0.092
D34S | -0.146 ± 0.11
D34T | -0.047 ± 0.14
D34V | -0.094 ± 0.099
D34W | 0.009 ± 0.14
D34Y | -0.118 ± 0.15
P35A | -0.016 ± 0.097
P35C | -0.1 ± 0.15
P35E | -0.345 ± 0.15
P35G | 0.038 ± 0.089
P35H | -0.001 ± 0.33
P35K | -0.374 ± 0.18
P35L | -0.191 ± 0.1
P35M | -0.054 ± 0.16
P35N | -0.023 ± 0.26
P35Q | -0.284 ± 0.22
P35R | 0.029 ± 0.1
P35S | 0.125 ± 0.11

Variant | abundance fitness
P35T | 0.054 ± 0.14
P35V | -0.04 ± 0.098
P35W | -0.236 ± 0.13
P35Y | 0.272 ± 0.26
D36A | -0.079 ± 0.12
D36E | 0.13 ± 0.17
D36F | -0.325 ± 0.19
D36G | -0.079 ± 0.1
D36H | 0.161 ± 0.23
D36I | -0.245 ± 0.17
D36K | 0.06 ± 0.18
D36L | -0.5 ± 0.12
D36M | -0.185 ± 0.2
D36N | 0.026 ± 0.2
D36P | -0.136 ± 0.13
D36Q | -0.05 ± 0.19
D36R | -0.055 ± 0.12
D36S | 0.202 ± 0.11
D36T | 0.078 ± 0.22
D36V | -0.052 ± 0.11
D36W | -0.37 ± 0.14
D36Y | -0.657 ± 0.23
M37A | -0.067 ± 0.11
